Source: paper PMC6551275 (Structure (London, England : 1993), 2019)

How the values were obtained:
[1] = molecular target: the molecule itself; experiment: SEC
[2] = molecular target: the molecule itself; experiment: NMR titration
[3] = molecular target: Ubiquitin (UniProt P0CG48 1-76); experiment: NMR titration
[4] = molecular target: the molecule itself; experiment: AUC

B1: UBQLN2 450–624 P506A (domain or fragment)
chain: RAMQALMQIQQGLQTLATEAPGLIPSFTPGVGVGVLGTAIGPVGPVTPIGPIGPIVAFTPIGPIGPIGPTGPAAPPGSTGSGGPTGPTVSSAAPSETTSPTSESGPNQQFIQQMVQALAGANAPQLPNPEVRFQQQLEQLNAMGFLNREANLQALIATGGDINAAIERLLGSQPSW
B1: binds [1].

B2: UBQLN2 450–624 P500S (domain or fragment)
chain: RAMQALMQIQQGLQTLATEAPGLIPSFTPGVGVGVLGTAIGPVGPVTPIGSIGPIVPFTPIGPIGPIGPTGPAAPPGSTGSGGPTGPTVSSAAPSETTSPTSESGPNQQFIQQMVQALAGANAPQLPNPEVRFQQQLEQLNAMGFLNREANLQALIATGGDINAAIERLLGSQPSW
B2: binds [2].

B3: UBQLN2 450–624 (domain or fragment)
chain: RAMQALMQIQQGLQTLATEAPGLIPSFTPGVGVGVLGTAIGPVGPVTPIGPIGPIVPFTPIGPIGPIGPTGPAAPPGSTGSGGPTGPTVSSAAPSETTSPTSESGPNQQFIQQMVQALAGANAPQLPNPEVRFQQQLEQLNAMGFLNREANLQALIATGGDINAAIERLLGSQPSW
B3: binds [3].

B4: UBQLN2 450–624 P497L (domain or fragment)
chain: RAMQALMQIQQGLQTLATEAPGLIPSFTPGVGVGVLGTAIGPVGPVTLIGPIGPIVPFTPIGPIGPIGPTGPAAPPGSTGSGGPTGPTVSSAAPSETTSPTSESGPNQQFIQQMVQALAGANAPQLPNPEVRFQQQLEQLNAMGFLNREANLQALIATGGDINAAIERLLGSQPSW
B4: binds [4].

B5: UBQLN2 450–624 A488T (domain or fragment)
chain: RAMQALMQIQQGLQTLATEAPGLIPSFTPGVGVGVLGTTIGPVGPVTPIGPIGPIVPFTPIGPIGPIGPTGPAAPPGSTGSGGPTGPTVSSAAPSETTSPTSESGPNQQFIQQMVQALAGANAPQLPNPEVRFQQQLEQLNAMGFLNREANLQALIATGGDINAAIERLLGSQPSW
B5: binds [1].

B6: UBQLN2 450–624 P506T (domain or fragment)
chain: RAMQALMQIQQGLQTLATEAPGLIPSFTPGVGVGVLGTAIGPVGPVTPIGPIGPIVTFTPIGPIGPIGPTGPAAPPGSTGSGGPTGPTVSSAAPSETTSPTSESGPNQQFIQQMVQALAGANAPQLPNPEVRFQQQLEQLNAMGFLNREANLQALIATGGDINAAIERLLGSQPSW
B6: binds [1].

B7: UBQLN2 450–624 P509S (domain or fragment)
chain: RAMQALMQIQQGLQTLATEAPGLIPSFTPGVGVGVLGTAIGPVGPVTPIGPIGPIVPFTSIGPIGPIGPTGPAAPPGSTGSGGPTGPTVSSAAPSETTSPTSESGPNQQFIQQMVQALAGANAPQLPNPEVRFQQQLEQLNAMGFLNREANLQALIATGGDINAAIERLLGSQPSW
B7: binds [2].

B8: UBQLN2 450–624 P497H (domain or fragment)
chain: RAMQALMQIQQGLQTLATEAPGLIPSFTPGVGVGVLGTAIGPVGPVTHIGPIGPIVPFTPIGPIGPIGPTGPAAPPGSTGSGGPTGPTVSSAAPSETTSPTSESGPNQQFIQQMVQALAGANAPQLPNPEVRFQQQLEQLNAMGFLNREANLQALIATGGDINAAIERLLGSQPSW
B8: binds [1].

B9: UBQLN2 450–624 T487I (domain or fragment)
chain: RAMQALMQIQQGLQTLATEAPGLIPSFTPGVGVGVLGIAIGPVGPVTPIGPIGPIVPFTPIGPIGPIGPTGPAAPPGSTGSGGPTGPTVSSAAPSETTSPTSESGPNQQFIQQMVQALAGANAPQLPNPEVRFQQQLEQLNAMGFLNREANLQALIATGGDINAAIERLLGSQPSW
B9: binds [4].

B10: UBQLN2 450–624 P506S (domain or fragment)
chain: RAMQALMQIQQGLQTLATEAPGLIPSFTPGVGVGVLGTAIGPVGPVTPIGPIGPIVSFTPIGPIGPIGPTGPAAPPGSTGSGGPTGPTVSSAAPSETTSPTSESGPNQQFIQQMVQALAGANAPQLPNPEVRFQQQLEQLNAMGFLNREANLQALIATGGDINAAIERLLGSQPSW
B10: binds [1].

B11: UBQLN2 450–624 P497S (domain or fragment)
chain: RAMQALMQIQQGLQTLATEAPGLIPSFTPGVGVGVLGTAIGPVGPVTSIGPIGPIVPFTPIGPIGPIGPTGPAAPPGSTGSGGPTGPTVSSAAPSETTSPTSESGPNQQFIQQMVQALAGANAPQLPNPEVRFQQQLEQLNAMGFLNREANLQALIATGGDINAAIERLLGSQPSW
B11: binds [4].
